Source: paper PMC2196380

Target: HLA-DM (DMα/DMβ heterodimer) (human (endogenous in B-LCL)) (UniProt P28067)
Assay: co-IP

Chain of UniProt P28067 (P28067 27-261, chain 1 of 2): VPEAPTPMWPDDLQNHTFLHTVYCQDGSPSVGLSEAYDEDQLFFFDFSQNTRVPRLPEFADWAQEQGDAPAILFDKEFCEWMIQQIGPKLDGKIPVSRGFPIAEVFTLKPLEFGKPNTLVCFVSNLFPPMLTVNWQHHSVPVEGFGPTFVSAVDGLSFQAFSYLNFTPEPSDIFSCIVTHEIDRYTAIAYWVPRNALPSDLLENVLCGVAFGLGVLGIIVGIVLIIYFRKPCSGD
Chain of UniProt P28067 (P28068 19-263, chain 2 of 2, further chain): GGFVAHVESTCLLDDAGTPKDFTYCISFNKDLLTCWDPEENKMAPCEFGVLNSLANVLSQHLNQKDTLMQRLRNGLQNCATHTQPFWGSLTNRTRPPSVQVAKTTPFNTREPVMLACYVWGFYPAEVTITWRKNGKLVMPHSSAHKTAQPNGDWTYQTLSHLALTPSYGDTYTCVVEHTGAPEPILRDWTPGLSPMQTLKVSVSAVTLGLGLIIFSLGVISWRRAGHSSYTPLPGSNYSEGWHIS

Substance “wild-type HLA-DR3 αβCLIP complexes from T2.DR3 cells (from UniProt P01903 26-254) (peptide-MHC)” has a percent coprecipitated with DM of 14%.
